The target of assay [1] is ephrin-A5 Fc (UniProt P52803). The assay can be described thus: SPR. The conditions noted are these: Fc fusion.
In assay [2] the target is ephrin-A5 Fc (UniProt P52803). The experiment in a line: ELISA. The conditions noted are these: Fc fusion. A general note: ELISA stands for enzyme-linked immunosorbent assay.
For another assay, the target named is ephrin-B3 Fc (UniProt Q15768). The experiment in a line: ELISA. Conditions: Fc fusion.
The target of assay [3] is EphA4 Fc (wild type): human EphA4 ectodomain fused to IgG4 Fc (human) (UniProt P54764). The experiment in a line: AUC; sedimentation velocity, 10 mM potassium phosphate pH 7.6, 20 °C, 40,000 rpm, c(s) fit with SEDFIT; oligomeric state of the Fc fusion.
In assay [4] the target is ephrin-A5 Fc (UniProt P52803). The experiment in a line: SPR; BIAcore T200; ephrin-A5 Fc amine-coupled on CM5 chip; EphA4 Fc proteins 500 to 50 nM in 10 mM HEPES pH 7.4, 150 mM NaCl, 3 mM EDTA, 0.05% Surfactant P20; 30 µl/min; bivalent analyte model and steady state affinity model. Background: In SPR one partner is held on a chip, and binding of the other changes the refractive index at the surface.

In assay [5] the target is triple mutant of EphA4 Fc (N235Q, N340Q, N408Q) (human) (UniProt P54764). The experiment in a line: AUC; sedimentation velocity, 10 mM potassium phosphate pH 7.6, 20 °C, 40,000 rpm, c(s) fit with SEDFIT; oligomeric state of the Fc fusion.

Sequence of UniProt Q15768 (Q15768 28-226): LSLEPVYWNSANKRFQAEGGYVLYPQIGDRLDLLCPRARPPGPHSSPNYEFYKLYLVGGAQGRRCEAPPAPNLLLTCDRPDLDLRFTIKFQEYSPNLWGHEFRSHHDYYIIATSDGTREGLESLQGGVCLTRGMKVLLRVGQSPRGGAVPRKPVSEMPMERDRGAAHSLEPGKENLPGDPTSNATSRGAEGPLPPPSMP

With “EphA4 Fc (wild type): human EphA4 ectodomain fused to IgG4 Fc (from UniProt P54764-1 20-547)”, the dissociation constant Kd (usually a measure of binding affinity in units of concentration) with ephrin-A5 Fc [1] was found to be 318 nM; in the assay with ephrin-A5 Fc [2], 0.51 nM; with ephrin-B3 Fc, 23.9 nM.
For “EphA4 Fc (wild type): human EphA4 ectodomain fused to IgG4 Fc (from UniProt P54764-1 20-547) (Fc fusion)”, the stoichiometry N – broadly, a count of units in the complex or per binding partner – in assay [3] was determined as 2. In the assay with ephrin-A5 Fc [4], this substance showed a ka1 (bivalent analyte model) of 56300 M⁻¹ s⁻¹, a ka2 (bivalent analyte model) of 0.000112 RU^-1s^-1, a kd1 (bivalent analyte model) of 0.0224 s⁻¹ and a kd2 (bivalent analyte model) of 0.00106 s⁻¹.
Take “triple mutant of EphA4 Fc (N235Q, N340Q, N408Q) (from UniProt P54764-1 20-547) (Fc fusion)”: in assay [5], the stoichiometry N amounted to 2. In the assay with ephrin-A5 Fc [4], this substance came in with a ka1 (bivalent analyte model) of 115000 M⁻¹ s⁻¹, a ka2 (bivalent analyte model) of 5.4e-05 RU^-1s^-1, a kd1 (bivalent analyte model) of 0.0184 s⁻¹ and a kd2 (bivalent analyte model) of 2.66e-06 s⁻¹.
